Assay results as given in patent publication CN114349851A (SHANGHAI NAI BIOTECHNOLOGY CO LTD, dated 2022).
Numbering of substitutions follows the chain as printed.

What was measured:
[1] = molecular target: T1, 新冠病毒全长S蛋白 (Spike-trimer) (SARS-CoV-2, UniProt P0DTC2 14-1213); assay: BLI (Octet RED96), His-tagged nanobody on Ni-NTA sensor
T1 construct: also called S-FL

[2] = molecular target: T2, Delta(B.1.617.2)突变株RBD蛋白 (SARS-CoV-2 Delta (B.1.617.2), UniProt P0DTC2 319-541); assay: as above
T2 construct: domain: RBD; also called RBD-Delta; RBD-Delta(B.1.617.2)

[3] = molecular target: T3, B.1.617.1突变株RBD蛋白 (SARS-CoV-2 B.1.617.1, UniProt P0DTC2 319-541); assay: ELISA
T3 construct: domain: RBD

B1: 纳米抗体C5 (C5克隆) (VHH)
VHH: DVQLVESGGGSVQAGGSLRLSCAASGKYSHLGFLGWFRQAPGKEREGVAAGLGAYEDGYYADSVKGRFTVSLDNAENTVYLQMNSLKPEDTALYYCAALVVFSRDSPEFLAQNYWGQGTQVTVSS
notes: also called C5抗体; C5 nanobody
Work on B1 yielded a Kd [1] of 18 nM.

B2: 纳米抗体C5G2 (VHH)
VHH: B1 VHH with Y28F, G32V, D57S, F102L, S106N, P107T, L110I, Q112H
B2 was tested, and the Kd [2] was 83.1 nM and the binding result [3] was “no binding”.

B3: 纳米抗体C5D2 (VHH)
VHH: B1 VHH with K27E, H30Q, G32R, Y55N, V101I, R104H, S106G
In the case of B3, the Kd [2] is reported as 13.1 nM and the binding result [3] is reported as “no binding”.
